Data published in patent US20250236642A1 (NEC, published 2025).

Key:
[1] = molecular target: T1, HLA-A*02:01 molecule; test: flow cytometry, T2 cells
T1 construct: MHC class I molecule on T2 cells (ATCC); also called product of an HLA-A*02:01 gene; allele A*02:01

[2] = molecular target: T2, HLA-A*24:02 molecule; test: flow cytometry, C1R-A24 cells;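 note: Read-out was the amount of peptide–MHC complex on each cell, taken as the fluorescence intensity of a bound fluorescent antibody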
T2 construct: MHC class I molecule on C1R-A24 cells, endogenous peptide and b2m stripped at pH 3.3, purified b2m added back; also called product of an HLA-A*24:02 gene; allele A*24:02
Source text: Thereafter, the number of MHC-peps for each C1R-A24 cell (proportional to a fluorescence intensity of the fluorescent antibody) was quantitatively measured using a fluorescence cell analyzer FACScan (Becton-Dickinson).

Binder	log Kd [1]	log10 Kd (M) [2]
ILSDHQQSQ (synthetic 9-mer derived from Casp-8) [peptide of SEQ ID NO: 70]	> -3	> -3
LLITRKSFI (synthetic 9-mer derived from Fas; also called A10) [peptide of SEQ ID NO: 16]	-5.13	-6.64
LIITRKSFI (synthetic 9-mer derived from Fas) [peptide of SEQ ID NO: 29]	-4.11	-5.6
LHITRKSFI (synthetic 9-mer derived from Fas) [peptide of SEQ ID NO: 63]	–	-4.76
LAITRKSFI (synthetic 9-mer derived from Fas) [peptide of SEQ ID NO: 46]	–	-5.12
LMITRKSFI (synthetic 9-mer derived from Fas) [peptide of SEQ ID NO: 17]	-5.2	-6.01
LTITRKSFI (synthetic 9-mer derived from Fas) [peptide of SEQ ID NO: 45]	–	-4.82
LVITRKSFI (synthetic 9-mer derived from Fas) [peptide of SEQ ID NO: 30]	-4.01	-5.46
LLNPNRQTI (synthetic 9-mer derived from CADM1) [peptide of SEQ ID NO: 23]	-5.24	-6.22
ALRPAPALL (synthetic 9-mer derived from EVC1) [peptide of SEQ ID NO: 26]	-6.11	-6.4
ASPSHMTSM (synthetic 9-mer derived from Helios) [peptide of SEQ ID NO: 81]	> -3	> -3
GRVMQIDGV (synthetic 9-mer derived from Wnt5a) [peptide of SEQ ID NO: 68]	–	-4.63
VMSHHGEKL (synthetic 9-mer derived from Helios; also called A13) [peptide of SEQ ID NO: 19]	-5.08	-6.1
MLPQTPSHL (synthetic 9-mer derived from c-Myb) [peptide of SEQ ID NO: 24]	-5.58	-7.14
GILSDHQQS (synthetic 9-mer derived from Casp-8) [peptide of SEQ ID NO: 74]	> -3	> -3
HMTSSERPF (synthetic 9-mer derived from Helios) [peptide of SEQ ID NO: 64]	–	-4.16
LPFSPSQFL (synthetic 9-mer derived from c-Myb) [peptide of SEQ ID NO: 60]	–	-3.35
IFADVSSST (synthetic 9-mer derived from c-Myb) [peptide of SEQ ID NO: 78]	> -3	> -3
AQAPPTAQL (synthetic 9-mer derived from c-Myb) [peptide of SEQ ID NO: 5]	-6.02	-5.75
ATAPPTAQL (synthetic 9-mer derived from c-Myb) [peptide of SEQ ID NO: 25]	-5	-4.54
ALAPPTAQL (synthetic 9-mer derived from c-Myb) [peptide of SEQ ID NO: 6]	-6.58	-5.33
CDLSSFEFF (synthetic 9-mer derived from c-Myb) [peptide of SEQ ID NO: 58]	–	-4.1

Binder	log Kd [1]	log10 Kd (M) [2]
CLDEHQWQL (synthetic 9-mer derived from EVC1) [peptide of SEQ ID NO: 9]	-6.66	-5.87
CTDEHQWQL (synthetic 9-mer derived from EVC1) [peptide of SEQ ID NO: 39]	-5.04	–
CIDEHQWQL (synthetic 9-mer derived from EVC1) [peptide of SEQ ID NO: 28]	-4.85	-3.48
SLLITRKSF (synthetic 9-mer derived from Fas) [peptide of SEQ ID NO: 62]	–	-5.84
CMIVHQGTI (synthetic 9-mer derived from c-Myb) [peptide of SEQ ID NO: 36]	–	-5.54
GSPDEFSND (synthetic 9-mer derived from Casp-8) [peptide of SEQ ID NO: 72]	> -3	> -3
HMAKVIEFL (synthetic 9-mer derived from EVC1) [peptide of SEQ ID NO: 38]	-5.69	-6.03
VFGRVMQID (synthetic 9-mer derived from Wnt5a; also called A15) [peptide of SEQ ID NO: 66]	–	-5.41
LPPARHSTI (synthetic 9-mer derived from c-Myb) [peptide of SEQ ID NO: 76]	> -3	> -3
SSFEFFEEA (synthetic 9-mer derived from c-Myb) [peptide of SEQ ID NO: 37]	-6.49	–
STGESAQTS (synthetic 9-mer derived from Casp-8) [peptide of SEQ ID NO: 71]	> -3	> -3
ATLAPAVLL (synthetic 9-mer derived from EVC1) [peptide of SEQ ID NO: 10]	-5.56	-5.2
AVLAPAVLL (synthetic 9-mer derived from EVC1) [peptide of SEQ ID NO: 27]	-5.15	4.81
SPDEFSNDF (synthetic 9-mer derived from Casp-8) [peptide of SEQ ID NO: 73]	> -3	> -3
KFLEAFHEV (synthetic 9-mer derived from EVC1) [peptide of SEQ ID NO: 8]	-5.93	-6.88
VLPPARHST (synthetic 9-mer derived from c-Myb) [peptide of SEQ ID NO: 54]	-5.11	–
GYITCERPF (synthetic 9-mer derived from Helios) [peptide of SEQ ID NO: 65]	–	-6.52
ATGDCSSFI (synthetic 9-mer derived from c-Myb) [peptide of SEQ ID NO: 59]	-4.08	–
THLDAGTVE (synthetic 9-mer derived from Casp-8) [peptide of SEQ ID NO: 75]	> -3	> -3
SLVLTWAAL (synthetic 9-mer derived from EVC2) [peptide of SEQ ID NO: 14]	-5.63	-5.31
FIDSDSSSW (synthetic 9-mer derived from c-Myb) [peptide of SEQ ID NO: 57]	–	-4.7
LLLFSAAAL (synthetic 9-mer derived from CADM1) [peptide of SEQ ID NO: 1]	-6.06	-4.96

Binder	log Kd [1]	log10 Kd (M) [2]
SSLDPPKVL (synthetic 9-mer derived from c-Myb) [peptide of SEQ ID NO: 55]	–	-5.35
SLPNEKQTS (synthetic 9-mer derived from Casp-8) [peptide of SEQ ID NO: 69]	> -3	> -3
AYRTCWIFS (synthetic 9-mer derived from Casp-8) [peptide of SEQ ID NO: 49]	–	-5.42
ALPKIRARV (synthetic 9-mer derived from EVC2) [peptide of SEQ ID NO: 12]	-5.66	-6.18
LMEEHGATL (synthetic 9-mer derived from EVC2) [peptide of SEQ ID NO: 13]	-4.92	-5.22
LLEEHGATL (synthetic 9-mer derived from EVC2) [peptide of SEQ ID NO: 41]	-5.6	–
LVEEHGATL (synthetic 9-mer derived from EVC2) [peptide of SEQ ID NO: 43]	-4.18	–
LIEEHGATL (synthetic 9-mer derived from EVC2) [peptide of SEQ ID NO: 40]	-4.5	–
LHEEHGATL (synthetic 9-mer derived from EVC2) [peptide of SEQ ID NO: 79]	> -3	> -3
LTEEHGATL (synthetic 9-mer derived from EVC2) [peptide of SEQ ID NO: 42]	-4.09	–
ARHSTIPLV (synthetic 9-mer derived from c-Myb) [peptide of SEQ ID NO: 77]	> -3	> -3
EAIDGYITL (synthetic 9-mer; also called H1) [peptide of SEQ ID NO: 47]	–	-5.54
ISAYRTCWI (synthetic 9-mer derived from Casp-8) [peptide of SEQ ID NO: 34]	–	-5
TVLVPPRNL (synthetic 9-mer derived from CADM1) [peptide of SEQ ID NO: 48]	–	-8.27
GYITLGKPH (synthetic 9-mer derived from Helios) [peptide of SEQ ID NO: 80]	> -3	> -3
YFFTVIFSF (synthetic 9-mer derived from Fas) [peptide of SEQ ID NO: 44]	–	-6.77
FSNDFGQSL (synthetic 9-mer derived from Casp-8) [peptide of SEQ ID NO: 35]	-3.9	–
VLLQQFQTA (synthetic 9-mer derived from EVC2) [peptide of SEQ ID NO: 15]	-4.71	-5.55
SLPFSPSQF (synthetic 9-mer derived from c-Myb) [peptide of SEQ ID NO: 56]	–	-7
YVYDPPTTI (synthetic 9-mer derived from CADM1) [peptide of SEQ ID NO: 2]	-6.16	-6.23
YLYDPPTTI (synthetic 9-mer derived from CADM1) [peptide of SEQ ID NO: 4]	-6.23	-6.16
YTYDPPTTI (synthetic 9-mer derived from CADM1) [peptide of SEQ ID NO: 3]	-5.47	-5.51
